Patent US20170037117A1 (SALK INSTITUTE FOR BIOLOGICAL STUDIES, published 2017)
Where a chain is given by its changes, count along the chain named. Ends that are not written are not given here.

T1: human α-CGRP fragment 26-37 (human)
T1 peptide: NFVPTNVGSKAF-NH2

T2: human α-CGRP fragment 1-36-COOH (human, free C-terminus (not amidated))
T2 peptide: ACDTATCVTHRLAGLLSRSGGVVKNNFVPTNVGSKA

T3: human α-CGRP 1-37 (WT) (human, not fully specified; C-terminal amide; N-terminal biotin when captured on the chip; 125I label in the radioligand assay)
T3 construct: also called α-human
T3 peptide: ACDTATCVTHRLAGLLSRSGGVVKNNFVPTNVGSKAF

T4: rat α-CGRP (1-37) (rat, not fully specified; C-terminal amide; N-terminal biotin when captured on the chip)
T4 construct: also called rat α (1-37); α-rat
T4 peptide: T3 peptide with A1S, D3N, N25D, K35E

T5: human β-CGRP (1-37) (human, not fully specified; C-terminal amide; N-terminal biotin when captured on the chip)
T5 construct: also called human β (1-37); β-CGRP (WT)
T5 peptide: T3 peptide with D3N, V22M, N25S

T6: rat β-CGRP (1-37) (rat, not fully specified; C-terminal amide; N-terminal biotin when captured on the chip)
T6 construct: also called rat β (1-37)
T6 peptide: T3 peptide with A1S, D3N, N25D

T7: human α-CGRP fragment 8-37 (human, C-terminal amide)
T7 peptide: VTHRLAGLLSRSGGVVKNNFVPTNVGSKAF

T8: human α-CGRP P29A (19-37) (human)
T8 construct: the entry already carries the mutation
T8 peptide: SGGVVKNNFVATNVGSKAF-NH2

T9: human α-CGRP K35A (19-37) (human, not fully specified)
T9 construct: the entry already carries the mutation
T9 peptide: SGGVVKNNFVPTNVGSAAF-NH2

T10: human α-CGRP K35E (19-37) (human, not fully specified)
T10 construct: the entry already carries the mutation
T10 peptide: SGGVVKNNFVPTNVGSEAF-NH2

T11: human α-CGRP K35M (19-37) (human, not fully specified)
T11 construct: the entry already carries the mutation
T11 peptide: SGGVVKNNFVPTNVGSMAF-NH2

B1: Human amylin (1-37) (peptide)
peptide: KCNTATCATQRLANFLVHSSNNFGAILSSTNVGSNTY-NH2
modifications: ends and bridges not checked
B2: human α-CGRP fragment 1-19-COOH (peptide)
peptide: ACDTATCVTHRLAGLLSRS-OH
modifications: ends and bridges not checked
B3: antibody G1 Fab fragment (Fab, V domains shown)
VH: EVQLVESGGGLVQPGGSLRLSCAASGFTFSNYWISWVRQAPGKGLEWVAEIRSESDASATHYAEAVKGRFTISRDNAKNSLYLQMNSLRAEDTAVYYCLAYFDYGLAIQNYWGQGTLVTVSS
VL: EIVLTQSPATLSLSPGERATLSCKASKRVTTYVSWYQQKPGQAPRLLIYGASNRYLGIPARFSGSGSGTDFTLTISSLEPEDFAVYYCSQSYNYPYTFGQGTKLEIK
B4: Human calcitonin (1-32) (peptide)
peptide: CGNLSTCMLGTYTQDFNKFHTFPQTAIGVGAP-NH2
modifications: ends and bridges not checked
B5: Human adrenomedullin (1-52) (peptide)
peptide: YRQSMNNFQGLRSFGCRFGTCTVQKLAHQIYQFTDKDKDNVAPRSKISPQGY-NH2
modifications: ends and bridges not checked
B6: human α-CGRP fragment 1-13-COOH (peptide)
peptide: ACDTATCVTHRLA-OH
modifications: ends and bridges not checked

Assays:
antibody G1 Fab fragment = target: B3; assay: Biacore competition: G1 Fab 50 nM pre-incubated 1 h with 10 uM competing peptide, flowed over N-biotinylated human α-CGRP on SA chip; blocked ligand human α-CGRP
Source text: Y axis represents percentage of binding blocked by the presence of the competing peptide compared with the binding in the absence of the competing peptide.
All these peptides are amidated at the C-terminus.

[1] = target: T1, human α-CGRP fragment 26-37; assay: Biacore competition, 50 nM G1 Fab + 10 uM peptide over human α-CGRP on chip
Source text: (§1) Y axis represents percentage of binding blocked by the presence of the competing peptide compared with the binding in the absence of the competing peptide. […]

[2] = target: human α-CGRP fragment 19-36-COOH (human, Table 4: not C-terminally amidated (19-36-COOH); paragraph 408 says amidated at the C-terminus); assay: as above
Source text: as §1

[3] = target: T2, human α-CGRP fragment 1-36-COOH; assay: as above
Source text: as §1

[4] = target: B2; assay: as above
Source text: as §1

[5] = target: B6; assay: as above
Source text: as §1

Human calcitonin (1-32) = target: B4; assay: as above
Source text: as §1

Human amylin (1-37) = target: B1; assay: as above
Source text: as §1

[6] = target: B5; assay: as above
Source text: as §1

human α-CGRP 1-37 (WT) = target: T3, human α-CGRP 1-37 (WT); assay: as above
Source text: as §1

rat α-CGRP (1-37) = target: T4, rat α-CGRP (1-37); assay: as above
Source text: as §1

human β-CGRP (1-37) = target: T5, human β-CGRP (1-37); assay: as above
Source text: as §1

rat β-CGRP (1-37) = target: T6, rat β-CGRP (1-37); assay: as above
Source text: as §1

[7] = target: T7, human α-CGRP fragment 8-37; assay: as above
Source text: as §1

[8] = target: T8, human α-CGRP P29A (19-37); assay: as above
Source text: as §1

[9] = target: T9, human α-CGRP K35A (19-37); assay: as above
Source text: as §1

[10] = target: T10, human α-CGRP K35E (19-37); assay: as above
Source text: as §1

[11] = target: T11, human α-CGRP K35M (19-37); assay: as above
Source text: as §1

Binder: B1
% Binding blocked (antibody G1 Fab fragment): 0%

Binder: B2
% Binding blocked (antibody G1 Fab fragment): 0%

Binder: B3
percentage of binding blocked [1]: 100% | binding result [2]: no binding (tested: 10 uM peptide) | percentage of binding blocked [3]: ~40% | binding result [4]: no binding (tested: 10 uM peptide) | binding result [5]: no binding (tested: 10 uM peptide) | binding result (Human calcitonin (1-32)): no binding (tested: 10 uM peptide) | binding result (Human amylin (1-37)): no binding (tested: 10 uM peptide) | binding result [6]: no binding (tested: 10 uM peptide) | percentage of binding blocked (human α-CGRP 1-37 (WT)): 100% | percentage of binding blocked (rat α-CGRP (1-37)): 100% | percentage of binding blocked (human β-CGRP (1-37)): 100% | percentage of binding blocked (rat β-CGRP (1-37)): 100% | percentage of binding blocked [7]: 100% | percentage of binding blocked [8]: 100% | percentage of binding blocked [9]: 100% | percentage of binding blocked [10]: 100% | percentage of binding blocked [11]: 100%

Binder: B4
% Binding blocked (antibody G1 Fab fragment): 0%

Binder: B5
% Binding blocked (antibody G1 Fab fragment): 0%

Binder: B6
% Binding blocked (antibody G1 Fab fragment): 0%
